Here are results for four molecules from article PMC9166750 (Scientific Reports, 2022).

Assay [1] addresses syntaxin-3b (residues 1–264)-Avi, T14E, double-cysteine construct labelled with FRET dyes (mouse) (UniProt Q64704). In words: FRET or BRET; single-molecule FRET within syntaxin-3b (donor and acceptor on two cysteines), tethered by C-terminal biotin to streptavidin on a PEG surface; 10 μM SNAP-25 and synaptobrevin-2 (1-96) in solution; low FRET (open) read as SNARE complex. Background: Bioluminescence resonance energy transfer reports proximity on the nanometre scale.

Assay [2] concerns the target syntaxin-3b (residues 1–264)-Avi, wild type, double-cysteine construct labelled with FRET dyes (mouse) (UniProt Q64704). The assay is described as above.
Assay [3] has as its target syntaxin-1a cytoplasmic domain (residues 1–265) with C-terminal Avi-tag (UniProt P32851). In words: fluorescence polarisation; bulk fluorescence anisotropy; Alexa 488-labelled syntaxin about 0.5 μM in TBS (20 mM Tris pH 7.5, 150 mM NaCl, 0.5 mM TCEP), unlabelled SNAP-25A 0-0.900 μM, about 15 min at room temperature, 96 well plate; curves fit with Hill equations to estimate Kd.

Assay [4] shares this target. In words: fluorescence polarisation; ensemble fluorescence anisotropy of syntaxins with Munc18 (Supplemental Fig. 3); estimated Kd; conditions of this titration not told.
For assay [5] the target is unchanged. In words: pull-down; syntaxins biotinylated at the N-terminal amino group on neutravidin agarose beads; about 300 μg Munc18-1 incubated 1 h, washed, then 500 μg SNAP-25A 1 h at room temperature, washed with TBS; SDS-PAGE, Coomassie, Munc18-1 and SNAP-25 bands normalised to the syntaxin bands (ImageJ).
The next assay has as its target T1, Munc18-1 (UniProt P61765 1-594).
T1 construct: The methods describe no plasmid for Munc18-1; only its tag cleavage and gel filtration are told; source: E. coli BL21 (DE3*), purified (Ni-NTA, TEV cleavage, Superdex 200 gel filtration)
In words: fluorescence polarisation; ensemble fluorescence anisotropy of syntaxins with Munc18 (Supplemental Fig. 3); estimated Kd; conditions of this titration not told. The settings on record: both partners purified.

In general, Kd refers to the free concentration of one partner at which half of the binding sites on the other are occupied at equilibrium, for simple one-to-one binding.

In assay [1], “SNAP-25, full length (from UniProt P60881-2 1-206) (natural protein)” yielded a fold increase of SNARE complex formation against WT syntaxin-3b of 2 fold. For the same molecule, the percent of molecules that formed ternary SNARE complex in assay [2] stood at 50%. The Kd in assay [3] is 161 nM.
As to “Munc18-1 (from UniProt P61765 1-594) (natural protein)”, the Kd in assay [4] is 6.6 nM. Moreover, in assay [5], the percent decrease of binary t-SNARE complex formation with SNAP-25 in the presence of Munc18-1 came out at 70%.
On to “synaptobrevin-2 cytoplasmic domain (residues 1–96) (from UniProt P63045 1-96) (domain or fragment)”, for which the fold increase of SNARE complex formation against WT syntaxin-3b in assay [1] stood at 2 fold. Besides, the percent of molecules that formed ternary SNARE complex in assay [2] is 50%.

B1: syntaxin-3b cytoplasmic domain (residues 1–264) with C-terminal Avi-tag, wild type (domain or fragment, mouse, UniProt Q64704-2 1-264, looked up)
chain: MKDRLEQLKAKQLTQDDDTDEVEIAIDNTAFMDEFFSEIEETRLNIDKISEHVEEAKKLYSIILSAPIPEPKTKDDLEQLTTEIKKRANNVRNKLKSMEKHIEEDEVRSSADLRIRKSQHSVLSRKFVEVMTKYNEAQVDFRERSKGRIQRQLEITGKKTTDEELEEMLESGNPAIFTSGIIDSQISKQALSEIEGRHKDIVRLESSIKELHDMFMDIAMLVENQGAMIDRIENNMDQSVGFVERAVADTKKAVKYQSEARRKK
modifications: Alexa 488 (NHS ester) at the N-terminal primary amino group in the anisotropy assays; biotin (NHS-biotin) at the N-terminal primary amino group in the pull-downs
notes: syntaxin-3b (splice isoform 3b of syntaxin-3), cytoplasmic domain, residues 1-264; Gene synthesized and inserted into pJ414 (ATUM); The two native cysteines lie in the transmembrane region, which the Avi-tag replaces; also called SX-3b; WT syntaxin-3b; source: E. coli BL21 (DE3*), purified (Ni-NTA, TEV cleavage, HiTrap Q); not shown: His6, N-terminal, cleaved
Regarding B1, the Kd with Munc18-1 was 9.6 nM.
